According to the supplement of paper PMC6757056:
± gives the standard deviation of the averaged measurements.

B1: library; a variant is named by its letters at N, in order (parent)
chain: GCUGUCACCGGUGUAUUACCCUAGUGGUCGACCGGUCUGAUGAGUCUNNNNNNAGACGAAACAGC

Experiments:
hypoxanthine [1] = variants of: B1; experiment: normalized RNA/DNA level with ligand (relative to sTRSVctl = 100) (log10 (% of sTRSVctl)); ligand: hypoxanthine (xanthine aptamer); higher = less ribozyme self-cleavage, higher mRNA level; details: ligand concentration (+) RNA-Seq: 5 mM, HEK293T, reporter: mCherry (pCS4076), ligand present: yes
Summary of the method: (§1)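 HEK293T cells received ligand, where used, 1 h before being transfected with 4 µg per 6-well well of library plasmids encoding reporter-linked ribozyme switches. After 72 h, RNA was extracted with EDTA and sequenced. RNA level was derived from RNA reads per DNA read, normalized to a spiked-in non-cleaving sequence or the top sequences, then scaled and log-transformed. Values were ×100 then log10, the top set was 25 sequences, and the minimum was 100 DNA reads.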

hypoxanthine [2] = variants of: B1; experiment: normalized RNA/DNA level without ligand (relative to sTRSVctl = 100) (log10 (% of sTRSVctl)); ligand: hypoxanthine (xanthine aptamer); higher = less ribozyme self-cleavage, higher mRNA level; details: HEK293T, reporter: mCherry (pCS4076), ligand present: no
Summary of the method: as §1

Row | Variant | normalized RNA/DNA level with ligand (log10) (hypoxanthine [1]) | normalized RNA/DNA level without ligand (log10) (hypoxanthine [2])
1 | GCUGUCACCGGUGUAUUACCCUAGUGGUCGACCGGUCUGAUGAGUCUCACACCAGACGAAACAGC [CACACC] | 1.99 ± 0.035 | 1.929 ± 0.0057
2 | GCUGUCACCGGUGUAUUACCCUAGUGGUCGACCGGUCUGAUGAGUCUCACACGAGACGAAACAGC [CACACG] | 1.96 ± 0.032 | 1.861 ± 0.017
3 | GCUGUCACCGGUGUAUUACCCUAGUGGUCGACCGGUCUGAUGAGUCUCACCCUAGACGAAACAGC [CACCCU] | 1.96 ± 0.034 | 1.91 ± 0.096
4 | GCUGUCACCGGUGUAUUACCCUAGUGGUCGACCGGUCUGAUGAGUCUCACCCGAGACGAAACAGC [CACCCG] | 1.94 ± 0.028 | 1.906 ± 0.01
5 | GCUGUCACCGGUGUAUUACCCUAGUGGUCGACCGGUCUGAUGAGUCUCACCCAAGACGAAACAGC [CACCCA] | 1.958 ± 0.016 | 1.83 ± 0.019
6 | GCUGUCACCGGUGUAUUACCCUAGUGGUCGACCGGUCUGAUGAGUCUCACCCCAGACGAAACAGC [CACCCC] | 1.96 ± 0.025 | 1.8889 ± 0.0018
7 | GCUGUCACCGGUGUAUUACCCUAGUGGUCGACCGGUCUGAUGAGUCUAACAGCAGACGAAACAGC [AACAGC] | 1.94 ± 0.036 | 1.83 ± 0.05
8 | GCUGUCACCGGUGUAUUACCCUAGUGGUCGACCGGUCUGAUGAGUCUUACAGUAGACGAAACAGC [UACAGU] | 1.8101 ± 0.00016 | 1.52 ± 0.066
9 | GCUGUCACCGGUGUAUUACCCUAGUGGUCGACCGGUCUGAUGAGUCUUACAUCAGACGAAACAGC [UACAUC] | 1.979 ± 0.018 | 2 ± 0.03
10 | GCUGUCACCGGUGUAUUACCCUAGUGGUCGACCGGUCUGAUGAGUCUUACAUUAGACGAAACAGC [UACAUU] | 1.941 ± 0.0099 | 1.855 ± 0.016
11 | GCUGUCACCGGUGUAUUACCCUAGUGGUCGACCGGUCUGAUGAGUCUUACAUAAGACGAAACAGC [UACAUA] | 1.93 ± 0.038 | 1.86 ± 0.024
12 | GCUGUCACCGGUGUAUUACCCUAGUGGUCGACCGGUCUGAUGAGUCUGACACAAGACGAAACAGC [GACACA] | 1.934 ± 0.012 | 1.8467 ± 2.7e-05
13 | GCUGUCACCGGUGUAUUACCCUAGUGGUCGACCGGUCUGAUGAGUCUGACACUAGACGAAACAGC [GACACU] | 1.912 ± 0.0036 | 1.905 ± 0.008
14 | GCUGUCACCGGUGUAUUACCCUAGUGGUCGACCGGUCUGAUGAGUCUAACAUCAGACGAAACAGC [AACAUC] | 1.95 ± 0.022 | 2.02 ± 0.022
15 | GCUGUCACCGGUGUAUUACCCUAGUGGUCGACCGGUCUGAUGAGUCUAACAUUAGACGAAACAGC [AACAUU] | 1.91 ± 0.053 | 1.873 ± 0.011
16 | GCUGUCACCGGUGUAUUACCCUAGUGGUCGACCGGUCUGAUGAGUCUCACAGUAGACGAAACAGC [CACAGU] | 1.926 ± 0.0077 | 1.844 ± 0.0086
17 | GCUGUCACCGGUGUAUUACCCUAGUGGUCGACCGGUCUGAUGAGUCUCACAGAAGACGAAACAGC [CACAGA] | 1.97 ± 0.05 | 1.847 ± 0.015
18 | GCUGUCACCGGUGUAUUACCCUAGUGGUCGACCGGUCUGAUGAGUCUCACAGGAGACGAAACAGC [CACAGG] | 1.77 ± 0.089 | 1.26 ± 0.06
19 | GCUGUCACCGGUGUAUUACCCUAGUGGUCGACCGGUCUGAUGAGUCUCACAGCAGACGAAACAGC [CACAGC] | 1.9491 ± 1.9e-05 | 1.87 ± 0.044
20 | GCUGUCACCGGUGUAUUACCCUAGUGGUCGACCGGUCUGAUGAGUCUGACAUUAGACGAAACAGC [GACAUU] | 1.92 ± 0.057 | 1.856 ± 0.0056
21 | GCUGUCACCGGUGUAUUACCCUAGUGGUCGACCGGUCUGAUGAGUCUGACAUCAGACGAAACAGC [GACAUC] | 1.97 ± 0.081 | 1.93 ± 0.077

Row | Variant | normalized RNA/DNA level with ligand (log10) (hypoxanthine [1]) | normalized RNA/DNA level without ligand (log10) (hypoxanthine [2])
22 | GCUGUCACCGGUGUAUUACCCUAGUGGUCGACCGGUCUGAUGAGUCUUACACAAGACGAAACAGC [UACACA] | 1.899 ± 0.0042 | 1.859 ± 0.012
23 | GCUGUCACCGGUGUAUUACCCUAGUGGUCGACCGGUCUGAUGAGUCUUACACGAGACGAAACAGC [UACACG] | 1.87 ± 0.035 | 1.63 ± 0.02
24 | GCUGUCACCGGUGUAUUACCCUAGUGGUCGACCGGUCUGAUGAGUCUUACACCAGACGAAACAGC [UACACC] | 1.961 ± 0.0059 | 1.9 ± 0.027
25 | GCUGUCACCGGUGUAUUACCCUAGUGGUCGACCGGUCUGAUGAGUCUGACCCAAGACGAAACAGC [GACCCA] | 1.928 ± 0.0094 | 1.833 ± 0.0075
26 | GCUGUCACCGGUGUAUUACCCUAGUGGUCGACCGGUCUGAUGAGUCUCACAUUAGACGAAACAGC [CACAUU] | 1.909 ± 0.017 | 1.86 ± 0.031
27 | GCUGUCACCGGUGUAUUACCCUAGUGGUCGACCGGUCUGAUGAGUCUCACAUGAGACGAAACAGC [CACAUG] | 1.91 ± 0.075 | 1.857 ± 0.017
28 | GCUGUCACCGGUGUAUUACCCUAGUGGUCGACCGGUCUGAUGAGUCUUACCCUAGACGAAACAGC [UACCCU] | 1.9818 ± 0.00074 | 1.916 ± 0.015
29 | GCUGUCACCGGUGUAUUACCCUAGUGGUCGACCGGUCUGAUGAGUCUUACCCAAGACGAAACAGC [UACCCA] | 1.96 ± 0.057 | 1.89 ± 0.024
30 | GCUGUCACCGGUGUAUUACCCUAGUGGUCGACCGGUCUGAUGAGUCUUACCCGAGACGAAACAGC [UACCCG] | 1.93 ± 0.073 | 1.692 ± 0.0093
31 | GCUGUCACCGGUGUAUUACCCUAGUGGUCGACCGGUCUGAUGAGUCUAACCAUAGACGAAACAGC [AACCAU] | 1.873 ± 0.0073 | 1.8 ± 0.04
32 | GCUGUCACCGGUGUAUUACCCUAGUGGUCGACCGGUCUGAUGAGUCUAACCAAAGACGAAACAGC [AACCAA] | 1.91 ± 0.037 | 1.78 ± 0.072
33 | GCUGUCACCGGUGUAUUACCCUAGUGGUCGACCGGUCUGAUGAGUCUUACCAUAGACGAAACAGC [UACCAU] | 1.914 ± 0.0031 | 1.832 ± 0.0068
34 | GCUGUCACCGGUGUAUUACCCUAGUGGUCGACCGGUCUGAUGAGUCUUACCACAGACGAAACAGC [UACCAC] | 1.88 ± 0.045 | 1.793 ± 0.016
35 | GCUGUCACCGGUGUAUUACCCUAGUGGUCGACCGGUCUGAUGAGUCUGACCAUAGACGAAACAGC [GACCAU] | 1.932 ± 0.0042 | 1.838 ± 0.0066
36 | GCUGUCACCGGUGUAUUACCCUAGUGGUCGACCGGUCUGAUGAGUCUGACCACAGACGAAACAGC [GACCAC] | 1.94 ± 0.022 | 1.835 ± 0.017
37 | GCUGUCACCGGUGUAUUACCCUAGUGGUCGACCGGUCUGAUGAGUCUCACCAUAGACGAAACAGC [CACCAU] | 1.92 ± 0.021 | 1.8 ± 0.024
38 | GCUGUCACCGGUGUAUUACCCUAGUGGUCGACCGGUCUGAUGAGUCUCACCAGAGACGAAACAGC [CACCAG] | 1.97 ± 0.057 | 1.81 ± 0.061
39 | GCUGUCACCGGUGUAUUACCCUAGUGGUCGACCGGUCUGAUGAGUCUCACCAAAGACGAAACAGC [CACCAA] | 1.9 ± 0.032 | 1.79 ± 0.082
40 | GCUGUCACCGGUGUAUUACCCUAGUGGUCGACCGGUCUGAUGAGUCUAACACUAGACGAAACAGC [AACACU] | 1.92 ± 0.044 | 1.859 ± 0.018
41 | GCUGUCACCGGUGUAUUACCCUAGUGGUCGACCGGUCUGAUGAGUCUAACCCUAGACGAAACAGC [AACCCU] | 1.932 ± 0.0028 | 1.8887 ± 0.0015
42 | GCUGUCACCGGUGUAUUACCCUAGUGGUCGACCGGUCUGAUGAGUCUAACCCCAGACGAAACAGC [AACCCC] | 1.97 ± 0.082 | 1.87 ± 0.043
